{"source": "paper doi:10.1101/358382", "key": {"[1]": {"molecular_target": "fluorescently labeled duramycin", "assay": "fluorescence polarisation"}, "MBP-DurN": {"molecular_target": "MBP-DurN", "assay": "fluorescence polarisation"}, "DurN [2]": {"molecular_target": "DurN", "assay": "crystal structure"}, "DurN [3]": {"molecular_target": "DurN", "assay": "crystal structure", "remark": "listed apart in the source"}, "DurN [4]": {"molecular_target": "DurN", "assay": "crystal structure", "remark": "listed apart in the source"}}, "note": "Read-outs that look alike come from different tables or passages of the source."}
{"substance": "MBP-DurN K66A (enzyme)", "values": [{"measurement": "Ki", "setting": "[1]", "value": 7.43, "unit": "µM"}]}
{"substance": "MBP-DurN (enzyme)", "values": [{"measurement": "Kd", "setting": "[1]", "value": 417, "unit": "nM"}]}
{"substance": "duramycin (peptide)", "values": [{"measurement": "Ki", "setting": "MBP-DurN", "value": 2.72, "unit": "µM"}]}
{"substance": "DurN (enzyme)", "values": [{"measurement": "stoichiometry N", "setting": "DurN [2]", "value": 2}, {"measurement": "stoichiometry N", "setting": "DurN [3]", "value": 2}, {"measurement": "stoichiometry N", "setting": "DurN [4]", "value": 2}]}
{"substance": "1-Hya15Ser (peptide)", "values": [{"measurement": "Ki", "setting": "MBP-DurN", "value": 10.2, "unit": "µM"}]}
